Results published in patent US20130309230A1 (published 2013).

Molecular target: T1, UC4F10-11 hamster anti-mouse CTLA4 antibody
T1 construct: also called mouse anti-CTLA4 antibody (clone UC4 F10-11); anti-CTLA4
Experiment: bacterial display / FACS screening with labelled anti-CTLA4 antibody
Protocol: Subsequent rounds of enrichment were carried out using FACS. For the initial round of FACS, bacteria were sorted using biotinylated target (5 nM) and secondary labeling step with streptavidin phycoerythrin. […] Relative affinity and off-rate screening of individual clones were performed using a ficin digested Dylight-labeled Fab antibody fragment to reduce avidity effects of the bivalent antibody due to the expression of multiple peptides on the bacterial surface. As an additional test of target specificity, individual clones were screened for binding in the presence of 20 uM E. Coli depleted IgG as a competitor.

T1 sequence (VH, as listed by the source limits assumed, chain 1 of 2): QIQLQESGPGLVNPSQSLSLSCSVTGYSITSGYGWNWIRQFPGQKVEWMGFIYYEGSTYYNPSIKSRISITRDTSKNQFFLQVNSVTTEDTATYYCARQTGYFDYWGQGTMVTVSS
T1 sequence (VL, as listed by the source limits assumed, chain 2 of 2): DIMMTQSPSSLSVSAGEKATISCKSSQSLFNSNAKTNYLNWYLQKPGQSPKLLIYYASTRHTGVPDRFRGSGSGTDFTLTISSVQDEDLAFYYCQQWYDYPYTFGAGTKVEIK

B1: Negative control (does not bind anti-CTLA4) (peptide)
peptide: PCSEWQSMVQPRCYY
notes: The printed peptide has A where the printed DNA encodes Q; also called MMneg; negative control MM
B1: no binding.
